In patent publication CN112851814A (XIAN YUFAN BIOTECHNOLOGIES CO LTD, dated 2021):

Legend:
[1] = target: T1, BCMA蛋白 (human, UniProt Q02223 1-54); test: ELISA, BCMA coated at 2 μg/mL, dilution series of B48, detected by anti-HA and HRP goat anti-mouse IgG
T1 construct: extracellular domain; also called 抗原BCMA; B cell maturation antigen
T1 sequence (looked up): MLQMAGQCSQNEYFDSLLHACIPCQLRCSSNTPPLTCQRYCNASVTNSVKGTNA

[2] = target: T2, BSA蛋白 (UniProt P02769 25-607); test: ELISA, BSA coated at 2 μg/mL, dilution series of B48, detected by anti-HA and HRP goat anti-mouse IgG
T2 construct: Control protein in the ELISA; also called 对照蛋白
T2 sequence (P02769 25-607 limits assumed): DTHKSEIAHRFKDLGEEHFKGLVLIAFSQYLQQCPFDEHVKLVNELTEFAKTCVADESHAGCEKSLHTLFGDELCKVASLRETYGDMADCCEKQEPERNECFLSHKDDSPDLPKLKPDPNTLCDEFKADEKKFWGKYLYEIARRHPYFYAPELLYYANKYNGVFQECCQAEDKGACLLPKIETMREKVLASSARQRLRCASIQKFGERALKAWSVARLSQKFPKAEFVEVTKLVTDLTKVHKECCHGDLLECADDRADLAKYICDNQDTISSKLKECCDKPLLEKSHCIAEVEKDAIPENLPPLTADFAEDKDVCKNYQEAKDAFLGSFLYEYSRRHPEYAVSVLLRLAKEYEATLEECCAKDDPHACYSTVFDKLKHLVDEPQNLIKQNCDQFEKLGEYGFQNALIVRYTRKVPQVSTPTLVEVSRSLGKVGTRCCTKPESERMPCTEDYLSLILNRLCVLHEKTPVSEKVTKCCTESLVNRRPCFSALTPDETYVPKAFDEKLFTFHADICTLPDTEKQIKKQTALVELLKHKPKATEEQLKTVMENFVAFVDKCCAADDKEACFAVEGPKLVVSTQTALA

EC50 [1]: 34 nM
binding result [2]: no binding
B1: 抗BCMA单链抗体B48 (scFv)
scFv: QVQLVESGGDLVQPGGSLRLSCAASGFTFDDYAMHWVRQAPGKGLEWVSGISWNSGSIGYADSVKGRFTISRDNAKNSLYLQMNSLRAEDTALYYCAKIAGGAFDIWGQGTMVTVSSGGGGSGGGGSGGGGSDIRMTQSPSTLSASVGDRVTITCQASQNIGHFLAWYQHKPGKAPKLLIYAASTLQSGVPSRFSGSGSGTDFTLTISSLQPEDFGTYYCHHYVTVPLTFGQGTRVEIK
notes: Expressed in E. coli BL21 from pET-26b with an N-terminal pelB signal peptide (secreted to the periplasm); Purified protein carries C-terminal HA and 6xHis tags; also called B48单链抗体; not shown: C-terminal 6xHis tag from the vector pET-26b; vector residues between the insert
